Reference: patent US20140255303A1 (UNIVERSITE JOSEPH FOURIER GRENOBLE 1, published 2014)
Where a chain is given by its changes, count along the chain named.

T1: human recombinant VCAM-1 (human, UniProt P19320 25-698)
T1 construct: Bought recombinant protein (RnD Systems), immobilised on a CM5 chip for SPR; also called hVCAM-1; human VCAM-1
T1 sequence (looked up): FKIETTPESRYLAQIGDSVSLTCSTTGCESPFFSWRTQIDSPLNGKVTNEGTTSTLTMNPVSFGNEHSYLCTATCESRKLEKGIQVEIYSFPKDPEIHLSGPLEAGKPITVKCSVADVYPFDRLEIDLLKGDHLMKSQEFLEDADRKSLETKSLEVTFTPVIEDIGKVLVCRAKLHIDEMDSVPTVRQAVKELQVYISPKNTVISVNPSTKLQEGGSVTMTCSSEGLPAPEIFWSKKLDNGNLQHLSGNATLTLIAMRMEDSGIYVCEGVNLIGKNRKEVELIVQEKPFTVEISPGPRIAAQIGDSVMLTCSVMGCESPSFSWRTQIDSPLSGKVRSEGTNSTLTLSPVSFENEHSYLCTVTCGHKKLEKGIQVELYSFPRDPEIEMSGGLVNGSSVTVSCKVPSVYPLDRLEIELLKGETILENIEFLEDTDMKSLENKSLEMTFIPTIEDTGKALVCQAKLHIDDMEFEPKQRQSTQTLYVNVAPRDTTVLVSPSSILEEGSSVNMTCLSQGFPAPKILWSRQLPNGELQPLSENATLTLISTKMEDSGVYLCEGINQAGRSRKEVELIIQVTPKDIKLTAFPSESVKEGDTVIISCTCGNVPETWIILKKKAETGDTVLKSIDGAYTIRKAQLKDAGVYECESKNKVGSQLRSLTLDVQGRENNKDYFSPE

T2: murine recombinant VCAM-1 (murine, UniProt P29533 25-698)
T2 construct: Bought recombinant protein (RnD Systems), immobilised on a CM5 chip for SPR; also called mVCAM-1; murine VCAM-1
T2 sequence (looked up): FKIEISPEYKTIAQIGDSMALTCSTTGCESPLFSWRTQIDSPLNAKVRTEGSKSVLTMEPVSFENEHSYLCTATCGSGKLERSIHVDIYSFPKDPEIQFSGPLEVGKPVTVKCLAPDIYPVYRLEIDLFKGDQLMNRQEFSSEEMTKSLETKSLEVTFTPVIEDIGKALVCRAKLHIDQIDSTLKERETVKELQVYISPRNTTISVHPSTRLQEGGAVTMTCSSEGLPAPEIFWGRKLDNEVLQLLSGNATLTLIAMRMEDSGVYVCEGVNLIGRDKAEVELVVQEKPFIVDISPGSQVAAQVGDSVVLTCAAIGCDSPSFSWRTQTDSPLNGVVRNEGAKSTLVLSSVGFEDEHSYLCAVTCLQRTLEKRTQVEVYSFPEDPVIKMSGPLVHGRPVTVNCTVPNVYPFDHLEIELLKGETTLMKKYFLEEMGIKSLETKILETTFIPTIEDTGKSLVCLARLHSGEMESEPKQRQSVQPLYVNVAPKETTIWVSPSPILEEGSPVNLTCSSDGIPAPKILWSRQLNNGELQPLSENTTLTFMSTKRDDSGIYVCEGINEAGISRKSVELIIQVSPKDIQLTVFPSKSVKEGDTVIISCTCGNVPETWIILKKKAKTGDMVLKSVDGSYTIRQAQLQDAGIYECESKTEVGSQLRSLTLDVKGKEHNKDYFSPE

T3: rabbit VCAM-1 on transfected CHO cells (rabbit, UniProt A0A5F9DFM7 25-739)
T3 construct: whole, on cells
T3 sequence: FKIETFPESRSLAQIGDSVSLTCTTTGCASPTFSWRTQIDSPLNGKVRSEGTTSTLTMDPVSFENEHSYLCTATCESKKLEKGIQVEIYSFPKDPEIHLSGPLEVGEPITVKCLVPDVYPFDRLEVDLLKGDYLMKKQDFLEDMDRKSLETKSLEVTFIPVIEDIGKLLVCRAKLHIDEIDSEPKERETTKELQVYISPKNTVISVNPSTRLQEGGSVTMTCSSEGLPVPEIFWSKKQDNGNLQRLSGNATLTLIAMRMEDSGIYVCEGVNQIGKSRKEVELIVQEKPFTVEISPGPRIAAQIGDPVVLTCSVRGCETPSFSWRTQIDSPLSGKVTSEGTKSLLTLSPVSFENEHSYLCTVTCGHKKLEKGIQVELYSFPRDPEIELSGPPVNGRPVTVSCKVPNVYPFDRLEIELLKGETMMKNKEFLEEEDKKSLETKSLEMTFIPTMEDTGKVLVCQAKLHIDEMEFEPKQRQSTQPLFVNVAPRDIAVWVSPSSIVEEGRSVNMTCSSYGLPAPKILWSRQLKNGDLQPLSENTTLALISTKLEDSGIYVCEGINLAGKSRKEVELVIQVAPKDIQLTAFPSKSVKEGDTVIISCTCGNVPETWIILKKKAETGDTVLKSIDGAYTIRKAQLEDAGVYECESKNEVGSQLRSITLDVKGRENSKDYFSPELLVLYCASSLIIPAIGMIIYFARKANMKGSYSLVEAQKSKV

B1: cAbVCAM1-5 (VHH)
VHH: QVQLQESGGGSVQTGGSLRLSCAASGYTNSIMYMAWFRQAPGKKREGVAAIRFPDDSAYYAGSVKGRFTISHDNAKNTVYLQMNNLNPEDTAMYYCAARSSPYSFAWNDPSNYNYWGQGTQVTVSS
notes: Dromedary nanobody produced with a hexahistidine tag in E. coli; also called anti-VCAM-1 nanobody; not shown: hexahistidine tag
B2: cAbVCAM1-8 (VHH)
VHH: QVQLQESGGGLVQPGGSLRLSCAASGFTFSNYYMTWVRRAPGKGLEWVSRINSDGSTLYLPSVKGRFTISRDNAKNTLYLQMNSLKSEDTGWYYCVEGKSSVRGQGTQVTVSS
notes: as for B1
B3: cAbVCAM1-3 (VHH)
VHH: QVQLQESGGGSVQAGGSLRLSCTASGFTYSSYYMSWVRQAPGKGLEWVSGINVDGSNTYYADSVKGRFTISRDNAKNTLYLQMNSLKSEDTALYYCATGSGRDSYDCYSGSWCPKGQGTQVTVSS
notes: as for B1
B4: cAbVCAM1-9 (VHH)
VHH: B3 VHH with S11L, A14P, T23A, Y29F
notes: as for B1

What was measured:
human recombinant VCAM-1 = biological target: T1, human recombinant VCAM-1; assay: SPR, Biacore 3000, recombinant hVCAM-1 immobilised on CM5 chip, 1:1 model
Experimental: (§1) The affinity of human or murine recombinant VCAM-1 nanobodies was determined by SPR analysis on a Biacore 3000 apparatus. Recombinant mouse ICAM-1 (RnD Systems) was used as a negative control. The recombinant proteins were immobilized on a sensor chip CM5 (Biacore, Uppsala, Sweden) according to the instructions of manufacturer. Serial half-dilutions of the nanodbodies from 50 to 1 nM in PBS with 0.005% Tween-20® were tested. The affinity constants were determined by using adjustment of the standard association model 1:1 (BIAevaluation software package).

[1] = biological target: T2, murine recombinant VCAM-1; assay: SPR, Biacore 3000, recombinant mVCAM-1 immobilised on CM5 chip, 1:1 model
Experimental: as §1

[2] = biological target: T3, rabbit VCAM-1 on transfected CHO cells; assay: flow cytometry (PE-A) on CHO cells transiently transfected with rabbit VCAM-1; nanobody, then anti-His-tag mAb and anti-mouse IgG1 [Continuation), panel 8B]
Experimental: (§2) 10⁵ CHO cells either transiently transfected or not with a plasmid coding for rabbit VCAM-1 were sequentially incubated with 1 μg of nanobodies, 1 μg of anti-His-tag monoclonal antibody (Serotec) and 200 ng of anti-mouse rat IgG₁ (BD Biosciences). The bond was measured on a FACS Canto II analyzer (BD Biosciences, Franklin Lakes, USA) and the data analysed with the FlowJo software package (TreeStar, Ashland, USA). A negative control was made by omitting the nanobody.

[3] = biological target: T3, rabbit VCAM-1 on transfected CHO cells; assay: flow cytometry (PE-A) on CHO cells transiently transfected with rabbit VCAM-1; nanobody, then anti-His-tag mAb and anti-mouse IgG1 [Continuation), panel 3B]
Experimental: as §2

Binder | Kd (human recombinant VCAM-1) [nM] | Kd [1] [nM] | binding result [2] | binding result [3]
B1 | 6.5 | 2 | – | –
B2 | 1.4 | 13.2 | no binding (tested: 1 µg per 10^5 cells (single amount)) | –
B3 | 9.1 | 2.4 | – | no binding (tested: 1 µg per 10^5 cells (single amount))
B4 | 5.3 | 0.9 | – | –
